T1: full-length SFPQ (splicing factor proline- and glutamine-rich) (Homo sapiens), P23246
T1 chain: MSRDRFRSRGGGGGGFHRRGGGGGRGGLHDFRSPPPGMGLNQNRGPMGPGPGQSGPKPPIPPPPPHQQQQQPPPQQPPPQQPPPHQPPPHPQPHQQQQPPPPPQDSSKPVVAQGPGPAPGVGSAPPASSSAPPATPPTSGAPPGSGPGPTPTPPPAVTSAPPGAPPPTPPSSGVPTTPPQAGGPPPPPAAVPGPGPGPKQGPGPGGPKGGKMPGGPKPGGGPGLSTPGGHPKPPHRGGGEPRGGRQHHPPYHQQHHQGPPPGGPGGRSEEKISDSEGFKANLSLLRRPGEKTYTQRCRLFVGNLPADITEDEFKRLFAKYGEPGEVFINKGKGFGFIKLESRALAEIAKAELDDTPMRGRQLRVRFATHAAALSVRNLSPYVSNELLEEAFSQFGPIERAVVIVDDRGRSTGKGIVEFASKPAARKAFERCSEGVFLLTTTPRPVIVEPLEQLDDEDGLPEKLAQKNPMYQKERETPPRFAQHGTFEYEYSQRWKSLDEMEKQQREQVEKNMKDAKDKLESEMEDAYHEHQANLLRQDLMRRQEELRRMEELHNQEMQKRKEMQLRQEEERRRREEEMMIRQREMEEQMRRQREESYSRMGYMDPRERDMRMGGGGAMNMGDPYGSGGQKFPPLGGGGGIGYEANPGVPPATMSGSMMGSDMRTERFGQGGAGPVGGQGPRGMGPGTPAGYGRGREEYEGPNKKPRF


Assays:
[1] = molecular target: T1, full-length SFPQ (splicing factor …); assay: SANS; static cell, 1:20 hSFPQ:dSFPQ at 0.63 mg/ml, no match-out, 150 mM KCl, 1.5% glycerol, 20 mM HEPES, 1 mM DTT pH 7.4 in H2O; details: remark: other sources report otherwise
[2] = molecular target: T1, full-length SFPQ (splicing factor …); assay: SEC-SAXS; inline SEC-SAXS co-flow, Superdex 200 5/150, 500 mM KNO3, 20 mM HEPES pH 7.4, 5% glycerol, 1 mM DTT, 25 °C; injected at 4.2 mg/ml (full length) or 5 mg/ml (1–598); details: remark: other sources report otherwise
[3] = molecular target: the molecule itself; assay: SEC-SAXS; inline SEC-SAXS co-flow, Superdex 200 5/150, low salt: 150 mM KCl, 20 mM HEPES pH 7.4, 5% glycerol, 5 mM MgCl2, 1 mM DTT, 25 °C; injected at 4.91 mg/ml
[4] = molecular target: the molecule itself; assay: SEC-SAXS; inline SEC-SAXS co-flow, Superdex 200 5/150, 500 mM KNO3, 20 mM HEPES pH 7.4, 5% glycerol, 1 mM DTT, 25 °C; injected at 4.2 mg/ml (full length) or 5 mg/ml (1–598)

stoichiometry N [1]	stoichiometry N [2]	Binder	stoichiometry N [3]	stoichiometry N [4]
2	2	full-length SFPQ (splicing factor proline- and glutamine-rich), P23246 1-707 (natural protein) MSRDRFRSRGGGGGGFHRRGGGGGRGGLHDFRSPPPGMGLNQNRGPMGPGPGQSGPKPPIPPPPPHQQQQQPPPQQPPPQQPPPHQPPPHPQPHQQQQPPPPPQDSSKPVVAQGPGPAPGVGSAPPASSSAPPATPPTSGAPPGSGPGPTPTPPPAVTSAPPGAPPPTPPSSGVPTTPPQAGGPPPPPAAVPGPGPGPKQGPGPGGPKGGKMPGGPKPGGGPGLSTPGGHPKPPHRGGGEPRGGRQHHPPYHQQHHQGPPPGGPGGRSEEKISDSEGFKANLSLLRRPGEKTYTQRCRLFVGNLPADITEDEFKRLFAKYGEPGEVFINKGKGFGFIKLESRALAEIAKAELDDTPMRGRQLRVRFATHAAALSVRNLSPYVSNELLEEAFSQFGPIERAVVIVDDRGRSTGKGIVEFASKPAARKAFERCSEGVFLLTTTPRPVIVEPLEQLDDEDGLPEKLAQKNPMYQKERETPPRFAQHGTFEYEYSQRWKSLDEMEKQQREQVEKNMKDAKDKLESEMEDAYHEHQANLLRQDLMRRQEELRRMEELHNQEMQKRKEMQLRQEEERRRREEEMMIRQREMEEQMRRQREESYSRMGYMDPRERDMRMGGGGAMNMGDPYGSGGQKFPPLGGGGGIGYEANPGVPPATMSGSMMGSDMRTERFGQGGAGPVGGQGPRGMGPGTPAGYGRGREEYEGPNKKPRF	–	–
–	–	SFPQ residues 1–598 (domain or fragment, Homo sapiens, UniProt P23246 1-598, looked up, The GFP tag was removed with TEV protease; that the His tag left with it is surmised from the second nickel column) MSRDRFRSRGGGGGGFHRRGGGGGRGGLHDFRSPPPGMGLNQNRGPMGPGPGQSGPKPPIPPPPPHQQQQQPPPQQPPPQQPPPHQPPPHPQPHQQQQPPPPPQDSSKPVVAQGPGPAPGVGSAPPASSSAPPATPPTSGAPPGSGPGPTPTPPPAVTSAPPGAPPPTPPSSGVPTTPPQAGGPPPPPAAVPGPGPGPKQGPGPGGPKGGKMPGGPKPGGGPGLSTPGGHPKPPHRGGGEPRGGRQHHPPYHQQHHQGPPPGGPGGRSEEKISDSEGFKANLSLLRRPGEKTYTQRCRLFVGNLPADITEDEFKRLFAKYGEPGEVFINKGKGFGFIKLESRALAEIAKAELDDTPMRGRQLRVRFATHAAALSVRNLSPYVSNELLEEAFSQFGPIERAVVIVDDRGRSTGKGIVEFASKPAARKAFERCSEGVFLLTTTPRPVIVEPLEQLDDEDGLPEKLAQKNPMYQKERETPPRFAQHGTFEYEYSQRWKSLDEMEKQQREQVEKNMKDAKDKLESEMEDAYHEHQANLLRQDLMRRQEELRRMEELHNQEMQKRKEMQLRQEEERRRREEEMMIRQREMEEQMRRQREESYS	2	2
